Source: article PMC12619835, “KLF5 enables dichotomous lineage programs in pancreatic cancer via the AAA+ ATPase coactivators RUVBL1 and RUVBL2” (Nature Communications, 2025)

Target: T1, RUVBL1/2 hetero-hexamer (purified, recombinant) (UniProt Q9Y265 1-456; Q9Y230 1-463)
T1 construct: RUVBL1; RUVBL2, untagged; Printed as a hetero-hexamer; also called RUVBL1/2 complex; source: E. coli BL21, co-expressed, purified (Ni-NTA, TEV cleavage, SEC on Superose 6); not shown: His6, N-terminal, cleaved
Test: pull-down; MBP-KLF5 (10 μg) or MBP (5 μg) on amylose resin; 10 μg RUVBL1, 10 μg RUVBL2 or 20 μg RUVBL1/2 hetero-hexamer added for 2 h in 50 mM Na3PO4 pH 7.5, 0.1 mM EDTA, 200 mM NaCl, 1 mM DTT, 5% glycerol; washes with 250 mM NaCl; maltose elution; Western blot; 4 °C
Conditions: both partners purified

T1 sequence (Q9Y265 whole entry, chain 1 of 2): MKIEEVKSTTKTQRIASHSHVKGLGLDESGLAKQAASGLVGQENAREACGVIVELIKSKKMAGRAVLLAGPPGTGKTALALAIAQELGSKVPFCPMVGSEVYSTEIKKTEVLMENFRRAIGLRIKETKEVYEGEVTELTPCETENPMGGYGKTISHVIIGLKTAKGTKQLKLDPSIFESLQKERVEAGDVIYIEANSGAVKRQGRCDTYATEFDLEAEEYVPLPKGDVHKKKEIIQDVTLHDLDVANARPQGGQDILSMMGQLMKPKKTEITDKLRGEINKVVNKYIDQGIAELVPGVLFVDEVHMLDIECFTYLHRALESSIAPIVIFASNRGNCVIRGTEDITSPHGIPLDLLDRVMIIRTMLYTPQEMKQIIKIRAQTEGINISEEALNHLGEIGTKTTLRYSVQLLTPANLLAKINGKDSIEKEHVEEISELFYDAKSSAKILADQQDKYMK
T1 sequence (Q9Y230 whole entry, chain 2 of 2): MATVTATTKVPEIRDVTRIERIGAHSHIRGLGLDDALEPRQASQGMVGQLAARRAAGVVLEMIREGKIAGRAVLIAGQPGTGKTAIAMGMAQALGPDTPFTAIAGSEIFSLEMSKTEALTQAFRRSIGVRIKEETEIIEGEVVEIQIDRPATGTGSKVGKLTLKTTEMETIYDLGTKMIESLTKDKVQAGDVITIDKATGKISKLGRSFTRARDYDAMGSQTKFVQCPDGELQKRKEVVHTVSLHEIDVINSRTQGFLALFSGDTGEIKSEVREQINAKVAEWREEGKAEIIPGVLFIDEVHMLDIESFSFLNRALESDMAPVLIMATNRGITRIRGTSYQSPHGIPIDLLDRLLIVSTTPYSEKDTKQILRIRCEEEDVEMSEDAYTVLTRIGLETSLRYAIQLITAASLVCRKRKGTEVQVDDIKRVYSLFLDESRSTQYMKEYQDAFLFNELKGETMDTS

- binding result: binds
B1: recombinant MBP-tagged KLF5 (natural protein)
chain: not shown
notes: KLF5; For the pull-down with pure proteins the MBP-KLF5 was not previously subject to the amylose purification; also called MBP-KLF5; 6xHis-TEV-MBP-KLF5; source: E. coli BL21-CodonPlus (DE3)-RIPL, purified (Ni-NTA, TEV cleavage, SEC; also amylose resin for the mass spectrometry experiments); not shown: His6, N-terminal, cleaved; MBP, N-terminal, kept
